Key:
[1] = target: GH9 catalytic module of Cel9I from Clostridium thermocellum, N-terminally His-tagged (Clostridium thermocellum)
[2] = target: T1, GH9 catalytic module of Cel9I from Clostridium thermocellum, untagged (Clostridium thermocellum); assay: ITC; VP-ITC, 298 K; about 300 µM CBM3c injected into 65 µM GH9; 50 mM Tris-HCl pH 7.5, 150 mM NaCl, 0.05% sodium azide; one binding site model; CBM3c concentrations corrected to give a stoichiometry of one; two titrations; details: both partners purified
T1 chain: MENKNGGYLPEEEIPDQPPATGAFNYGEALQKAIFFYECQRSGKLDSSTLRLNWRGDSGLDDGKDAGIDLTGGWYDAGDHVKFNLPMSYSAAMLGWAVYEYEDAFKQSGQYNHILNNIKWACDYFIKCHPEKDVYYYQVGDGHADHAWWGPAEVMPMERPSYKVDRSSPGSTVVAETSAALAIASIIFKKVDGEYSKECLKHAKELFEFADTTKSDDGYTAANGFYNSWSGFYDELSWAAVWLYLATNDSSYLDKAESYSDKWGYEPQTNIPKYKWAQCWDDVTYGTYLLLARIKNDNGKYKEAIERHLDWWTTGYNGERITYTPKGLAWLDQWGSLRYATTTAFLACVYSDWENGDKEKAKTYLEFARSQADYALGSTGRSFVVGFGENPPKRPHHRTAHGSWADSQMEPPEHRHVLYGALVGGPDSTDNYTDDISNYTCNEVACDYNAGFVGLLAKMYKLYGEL

[3] = target: T2, CBM3c module of Cel9I with its adjacent N-terminal linker, C-terminally His-tagged (Clostridium thermocellum, UniProt Q02934 54-516); assay: as above; details: both partners purified
T2 construct: Cloning is described in Burstein et al., 2009 and Gilad et al., 2003; also called CBM3cL; CBM3c with linker; source: E. coli BL21(DE3)RIL, purified (Ni-IDA); not shown: His tag, C-terminal, kept
T2 sequence: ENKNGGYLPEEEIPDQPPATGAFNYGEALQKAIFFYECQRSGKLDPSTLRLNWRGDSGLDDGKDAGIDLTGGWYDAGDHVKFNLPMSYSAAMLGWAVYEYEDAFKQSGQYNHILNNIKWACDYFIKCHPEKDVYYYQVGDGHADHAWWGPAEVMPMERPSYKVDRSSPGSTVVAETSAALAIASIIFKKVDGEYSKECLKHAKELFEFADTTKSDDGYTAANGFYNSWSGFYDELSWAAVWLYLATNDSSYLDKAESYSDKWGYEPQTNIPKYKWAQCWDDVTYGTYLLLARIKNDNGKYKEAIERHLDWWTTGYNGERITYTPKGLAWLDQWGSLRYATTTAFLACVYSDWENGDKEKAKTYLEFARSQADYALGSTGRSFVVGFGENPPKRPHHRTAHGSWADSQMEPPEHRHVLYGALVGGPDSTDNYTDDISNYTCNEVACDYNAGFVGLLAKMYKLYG

B1: CBM3c module of Cel9I without the N-terminal linker, C-terminally His-tagged (domain or fragment)
chain: EVPEDEIFVEAGVNASGNNFIEIKAIVNNKSGWPARVCENLSFRYFINIEEIVNAGKSASDLQVSSSYNQGAKLSDVKHYKDNIYYVEVDLSGTKIYPGGQSAYKKEVQFRISAPEGTVFNPENDYSYQGLSAGTVVKSEYIPVYDAGVLVFGREP
modifications: one bound Ca2+ in the crystal. Limits are the crystallized untagged GH9 entity (466 aa, about 52 kDa as on SDS-PAGE). Paper residues 1-446 are entity 21-466 (offset +20, from Tyr440, Gly444 and end …)
[1]
  CMCase activity (reducing sugar released in 10 min, 333 K, pH 6.0) of 70 pmol His-tagged GH9 mixed with increasing amounts of CBM3cNL, relative to intact Cel9I set as 100% (% of intact Cel9I activity): 10
[2]
  Kd: 290 to 430 nM

B2: GH9 catalytic module of Cel9I from Clostridium thermocellum, untagged (domain or fragment)
chain: MENKNGGYLPEEEIPDQPPATGAFNYGEALQKAIFFYECQRSGKLDSSTLRLNWRGDSGLDDGKDAGIDLTGGWYDAGDHVKFNLPMSYSAAMLGWAVYEYEDAFKQSGQYNHILNNIKWACDYFIKCHPEKDVYYYQVGDGHADHAWWGPAEVMPMERPSYKVDRSSPGSTVVAETSAALAIASIIFKKVDGEYSKECLKHAKELFEFADTTKSDDGYTAANGFYNSWSGFYDELSWAAVWLYLATNDSSYLDKAESYSDKWGYEPQTNIPKYKWAQCWDDVTYGTYLLLARIKNDNGKYKEAIERHLDWWTTGYNGERITYTPKGLAWLDQWGSLRYATTTAFLACVYSDWENGDKEKAKTYLEFARSQADYALGSTGRSFVVGFGENPPKRPHHRTAHGSWADSQMEPPEHRHVLYGALVGGPDSTDNYTDDISNYTCNEVACDYNAGFVGLLAKMYKLYGEL
modifications: one bound Ca2+ in the crystal. Limits are the crystallized untagged GH9 entity (466 aa, about 52 kDa as on SDS-PAGE). Paper residues 1-446 are entity 21-466 (offset +20, from Tyr440, Gly444 and end …)
[3]
  Kd: 1300 to 2000 nM
